Consider five molecules from patent US20200079850A1 (SUTRO BIOPHARMA, published 2020).

Numbering of substitutions follows the chain as printed.

The target of experiment [1] is T1, human PD-1 expressed on the surface of CHO cells (human, UniProt Q15116 25-288).
T1 construct: I took it as human PD-1; also called CHO-PD1
The experiment can be described thus: flow cytometry, CHO-PD1 cells. How it is done: CHO-k cells stably expressing PD-1 or LAG3 (human or cynomolgus) on the cell surface were used to assess binding affinity of anti-PD-1/LAG3 bispecific antibody constructs. Cells were seeded at 100,000 cells/well in 100 μL of FACS buffer (1×PBS, 0.5% BSA, 0.1% sodium azide) in 96-well polypropylene plates. The cells were centrifuged at 1.5K rpm and resuspended with test antibodies diluted in FACS buffer and incubated on ice for 1 hour. The cells were washed twice with FACS buffer and incubated on ice for 30 mins with R-Phycoerythrin-AffiniPure F(ab′)2 Fragment Goat Anti-Human IgG (H+L) secondary detection antibody (1:200 dilution, Jackson ImmunoResearch Laboratories, West Grove, Pa.). The cells were washed twice with FACS buffer, fixed in 4% paraformaldehyde in PBS (Santa Cruz Biotechnology; Dallas, Tex.) for 20 mins on ice in the dark, washed twice with FACS buffer, and analyzed using the BD LSR II Flow Cytometer (BD Biosciences; San Jose, Calif.). Data were analyzed using FlowJo (FlowJo, LLC; Ashland, Oreg.) to determine mean fluorescence intensities. Binding constants were calculated using the statistical software, GraphPad Prism (GraphPad Software; La Jolla, Calif.) using the nonlinear regression equation, one site—specific binding with Hill slope. The secondary antibody by itself was used as a control.
Background: A flow cytometer gives signals particle by particle.

The target in experiment [2] is T2, human LAG3 expressed on the cell surface (CHO-LAG3, 293T-LAG3 cells) (human, UniProt P18627 23-525).
T2 construct: Stably transfected CHO or HEK293T cells; also called Human LAG3 (CHO); Human LAG3 (293T)
T2 sequence: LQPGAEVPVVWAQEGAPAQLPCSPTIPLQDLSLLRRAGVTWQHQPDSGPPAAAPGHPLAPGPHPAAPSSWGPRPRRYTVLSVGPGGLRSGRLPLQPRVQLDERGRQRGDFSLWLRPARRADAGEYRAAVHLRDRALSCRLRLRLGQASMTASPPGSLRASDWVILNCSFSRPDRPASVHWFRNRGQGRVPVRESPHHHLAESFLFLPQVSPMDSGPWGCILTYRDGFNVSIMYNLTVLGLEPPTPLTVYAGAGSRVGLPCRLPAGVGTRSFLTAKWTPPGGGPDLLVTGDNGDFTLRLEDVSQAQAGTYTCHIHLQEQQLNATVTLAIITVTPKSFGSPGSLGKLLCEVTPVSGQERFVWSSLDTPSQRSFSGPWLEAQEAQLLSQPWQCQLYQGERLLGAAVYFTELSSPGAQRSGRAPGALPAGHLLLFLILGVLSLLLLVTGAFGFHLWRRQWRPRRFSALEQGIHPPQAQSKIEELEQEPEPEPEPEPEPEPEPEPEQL
The experiment is described as follows: flow cytometry, CHO cells expressing human LAG3. As for the experimental part:
LAG3 antibody variants were tested in a fluorescence-activated cell sorting (FACS) cell-binding assay. Chinese Hamster Ovary (CHO) cells or HEK293T cells stably expressing the human target molecule LAG3 on the cell surface (CHO-LAG3, 293T-LAG3) were used to screen for cell binders by flow cytometry. Parental CHO or 293T cells were used as a negative control to determine background-binding levels. Cells were cultured in RPMI with 10% FCS Penicillin/Streptomycin (or Pen/Strep) and glutamine (or Gln) and split every 3-4 days at 10⁵ cells/ml.
A mix of parental CHO cells and CHO-LAG3 cells (or 293T and 293T-LAG3 cells) was prepared as follows: Parental CHO cells were washed 2× in PBS then incubated in PBS containing 1 nM CellTrace™ Oregon Green488® (Life Technologies) at 37° C. for 30 minutes. […] Parental CHO cells and CHO-LAG3 cells were then mixed to obtain a 1:1 cell suspension and seeded at 100 μl per well on 96 well polypropylene plates. Plates were spun at 1500 rpm for 5 minutes and cell pellets were suspended in 50 μl FACS buffer containing 6-12 point dilutions of anti-LAG3 variants starting from concentrations of ˜100-200 nM antibody, dispensed using BioMekFX (Beckman Coulter). Cells were then incubated on ice for 1 hr, washed with FACS buffer and incubated for 1 hr on ice with 50 μl FACS buffer containing 2.5 μg/ml R-Phycoerythrin-conjugated Goat Anti-Human IgG (Jackson ImmunoResearch) or AF647-conjugated Goat Anti-mouse IgG (Life Technologies) dispensed using BioMekFX (Beckman Coulter). Cells were then washed 2× with FACS buffer and fixed for 10 minutes in 200 μl PBS with 2% PFA prior to fluorescence detection. Samples were acquired using a Beckton Dickinson LSRII FACS. Mean Fluorescence Intensity of LAG3 antibody binding was analyzed using Tree Star, Inc. FlowJo® software.

The target of experiment [3] is T3, human LAG3-Fc (R&D Systems #2319-L3) (human, UniProt P18627 23-450).
T3 construct: Bought protein; also called Human LAG3 (Biacore)
T3 sequence: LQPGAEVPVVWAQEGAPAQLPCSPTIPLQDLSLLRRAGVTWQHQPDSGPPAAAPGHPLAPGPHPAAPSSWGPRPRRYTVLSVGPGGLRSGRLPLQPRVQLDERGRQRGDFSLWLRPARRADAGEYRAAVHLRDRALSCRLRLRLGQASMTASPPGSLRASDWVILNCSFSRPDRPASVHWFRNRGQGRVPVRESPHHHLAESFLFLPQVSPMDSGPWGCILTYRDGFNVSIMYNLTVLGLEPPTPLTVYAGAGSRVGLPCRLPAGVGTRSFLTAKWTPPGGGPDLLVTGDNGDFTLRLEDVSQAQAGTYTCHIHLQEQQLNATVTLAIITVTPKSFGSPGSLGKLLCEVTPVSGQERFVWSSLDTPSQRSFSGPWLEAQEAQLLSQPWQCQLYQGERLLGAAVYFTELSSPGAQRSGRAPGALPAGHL
The experiment can be described thus: SPR (Biacore), antibody captured by anti-Flag, LAG3-Fc as analyte, 25 C. As for the experimental part:
Anti-Flag M2 IgG (Sigma-Aldrich # F9291) was immobilized onto a CMS chip (GE Life Sciences) using amine coupling chemistry (from Amine Coupling Kit, GE Life Sciences). The immobilization steps were carried out at a flow rate of 25 μL/min in 1×HBS-EP+ buffer (GE Life Sciences; 10×Stock diluted before use). The sensor surfaces were activated for 7 min with a mixture of NHS (0.05 M) and EDC (0.2 M). The Anti-Flag M2 IgG was injected over all 4 flow cells at a concentration of 25 μg/mL in 10 mM sodium acetate, pH 4.5, for 7 min. Ethanolamine (1 M, pH 8.5) was injected for 7 min to block any remaining activated groups. An average of 12,000 response units (RU) of capture antibody was immobilized on each flow cell.
Off-rate and kinetic binding experiments were performed at 25° C. using 1×HBS-EP+buffer. Test and control antibodies were injected over the Anti-Flag surface at concentrations of 5-10 μg/mL for 12 seconds at a flow rate of 10 μL/min on flow cells 2, 3 and 4, followed by a buffer wash for 30 seconds at the same flow rate. Kinetic characterization of antibody samples was carried out with a single concentration of antigen (for off-rate ranking) or a dilution series of antigen (for kinetic characterization) and 1 injection of 0 nM antigen. After capturing ligand (antibody) on the anti-Flag surface, the analyte (human LAG3-Fc, R&D Systems #2319-L3; or cynomolgus LAG3-Fc, accession # NC 022282.1) was bound at 50, 25, 12.5, 6.25, and 0 nM for 180 seconds, followed by a 600 second dissociation phase at a flow rate of 50 μl/min Between each ligand capture and analyte binding cycle, regeneration was carried out using 2 injections of 10 mM glycine pH 2.0 for 30 seconds at 30 μL/min, followed by a 30 second buffer wash step.
The data were fit with the Biacore T200 Evaluation software, using a 1:1 Langmuir binding model. KD (affinity, nM) was determined as a ratio of the kinetic rate constants calculated from the fits of the association and dissociation phases.
On the technique in general: SPR reads the build-up and loss of mass on a sensor chip optically.

Experiment [4] deals with T4, recombinant human LAG3 protein (rhLAG3), HIS-tagged (ACRO) or biotinylated (R&D Cat #2319-C3) (human, UniProt P18627 23-450, biotinylated in part of the assays).
T4 sequence: T3 sequence
The experiment is described as follows: flow cytometry competition, rhLAG3 binding to Daudi cells; competitor MHCII. How it is done: DAUDI cells express high levels of Major Histocompatibility Class II (MHCII) molecules, a natural ligand for LAG3, on the cell surface. DAUDI cells were used to screen for antibodies that inhibit binding of HIS-tagged (ACRO) or biotinylated recombinant human LAG3 protein (rhLAG3) to MHCII expressed on the cell surface.
DAUDI cells were cultured in RPMI w/10% FCS Pen/Strep and Gln and split every 3-4 days at 10^5 cells/ml. Cells were washed 2× with FACS buffer (PBS w/2% FCS), […] at a final concentration of 1×10⁶ cells/ml and seeded at 100 μl per well on 96 well polypropylene plates. Plates were spun at 1500 rpm for 5 minutes and cell pellets were suspended in 50 μl FACS buffer containing 8 point 1:3 dilutions (2× concentrated) of anti-LAG3 antibody variants, starting from high concentration of −600 nM. 50 μl FACS buffer containing 10-20 μg/ml of the HIS-tagged rhLAG3 protein or 40 μg/ml of the biotinylated rhLAG3 protein were then added to the cells. Cell were then incubated in ice for 1 hr, washed with FACS buffer and incubated for 1 hr in ice with 50 μl FACS buffer containing 2 μg/ml R-Phycoerythrin-conjugated Streptavidin (eBiosciences) or 1 μg/ml R-Phycoerythrin-conjugated anti-HIS IgG (Abcam). Cell were washed 2× with FACS buffer and fixed for 10 minutes in 200 μl PBS w/2% PFA prior to acquisition.

T1 sequence (Q15116 25-288 limits assumed): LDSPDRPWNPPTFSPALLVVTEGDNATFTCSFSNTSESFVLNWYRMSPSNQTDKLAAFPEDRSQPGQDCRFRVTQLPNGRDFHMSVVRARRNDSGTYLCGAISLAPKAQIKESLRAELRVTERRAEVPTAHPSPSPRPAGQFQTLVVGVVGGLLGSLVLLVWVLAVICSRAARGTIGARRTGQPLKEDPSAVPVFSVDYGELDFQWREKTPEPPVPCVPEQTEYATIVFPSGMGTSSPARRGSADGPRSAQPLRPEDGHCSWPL

B1: Construct G: aPD1 1353-G10 Fab_K × aLAG3 1449-G09.2 scFvFc_H (three-chain Fab x scFvFc) (bispecific antibody, human IgG1, lambda)
heavy: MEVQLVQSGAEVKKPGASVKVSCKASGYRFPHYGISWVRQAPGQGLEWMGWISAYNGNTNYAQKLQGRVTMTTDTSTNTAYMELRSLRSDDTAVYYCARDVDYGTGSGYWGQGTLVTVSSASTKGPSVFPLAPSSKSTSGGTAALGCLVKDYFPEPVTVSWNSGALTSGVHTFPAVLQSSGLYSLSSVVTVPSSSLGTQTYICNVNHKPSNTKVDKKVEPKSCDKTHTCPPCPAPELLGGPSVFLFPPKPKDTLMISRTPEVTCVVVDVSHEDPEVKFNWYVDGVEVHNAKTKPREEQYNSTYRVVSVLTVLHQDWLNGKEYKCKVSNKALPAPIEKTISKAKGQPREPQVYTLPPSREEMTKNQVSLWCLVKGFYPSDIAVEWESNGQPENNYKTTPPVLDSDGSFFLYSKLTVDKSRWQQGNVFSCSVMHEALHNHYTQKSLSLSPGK
light: MSYELTQPPSVSVSPGQTARITCSGDALPKQYAYWYQQKPGQAPVMVIYKDTERPSGIPERFSGSSSGTKVTLTISGVQAEDEADYYCQSADNSITYRVFGGGTKVTVLGQPKAAPSVTLFPPSSEELQANKATLVCLISDFYPGAVTVAWKADSSPVKAGVETTTPSKQSNNKYAASSYLSLTPEQWKSHRSYSCQVTHEGSTVEKTVAPTECS
scFv: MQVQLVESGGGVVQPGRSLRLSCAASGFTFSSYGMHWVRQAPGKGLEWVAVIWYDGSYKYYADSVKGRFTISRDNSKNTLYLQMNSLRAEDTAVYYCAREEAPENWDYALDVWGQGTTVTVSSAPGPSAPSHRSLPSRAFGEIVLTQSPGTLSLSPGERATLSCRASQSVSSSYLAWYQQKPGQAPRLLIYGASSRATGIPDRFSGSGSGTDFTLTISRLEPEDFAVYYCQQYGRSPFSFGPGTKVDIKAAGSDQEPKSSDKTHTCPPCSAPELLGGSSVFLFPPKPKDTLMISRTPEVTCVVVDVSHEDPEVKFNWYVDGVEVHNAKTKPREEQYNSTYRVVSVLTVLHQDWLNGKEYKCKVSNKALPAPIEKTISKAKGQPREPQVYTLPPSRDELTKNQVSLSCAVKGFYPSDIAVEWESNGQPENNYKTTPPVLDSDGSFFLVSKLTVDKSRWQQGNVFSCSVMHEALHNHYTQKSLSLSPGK
As for B1, in experiment [1], the Bmax was found to be 6380 and the affinity, expressed as Kd, was 0.8 nM.

B2: Construct H: aPD1 1353-G10 Fab_H × aLAG3 1449-G09.2 scFvFc_K (three-chain Fab x scFvFc) (bispecific antibody, human IgG1, lambda)
heavy: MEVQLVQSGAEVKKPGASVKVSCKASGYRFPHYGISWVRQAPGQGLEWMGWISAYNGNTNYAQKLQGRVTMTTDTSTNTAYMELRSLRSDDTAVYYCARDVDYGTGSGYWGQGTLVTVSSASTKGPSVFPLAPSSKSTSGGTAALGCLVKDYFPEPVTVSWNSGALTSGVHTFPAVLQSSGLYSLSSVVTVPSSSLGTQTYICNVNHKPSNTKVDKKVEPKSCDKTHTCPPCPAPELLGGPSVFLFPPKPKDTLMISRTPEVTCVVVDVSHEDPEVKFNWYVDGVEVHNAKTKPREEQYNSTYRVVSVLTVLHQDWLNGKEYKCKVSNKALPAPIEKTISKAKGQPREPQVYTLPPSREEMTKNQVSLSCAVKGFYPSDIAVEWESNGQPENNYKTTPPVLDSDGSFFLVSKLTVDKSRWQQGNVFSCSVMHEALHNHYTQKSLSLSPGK
light: B1 light
scFv: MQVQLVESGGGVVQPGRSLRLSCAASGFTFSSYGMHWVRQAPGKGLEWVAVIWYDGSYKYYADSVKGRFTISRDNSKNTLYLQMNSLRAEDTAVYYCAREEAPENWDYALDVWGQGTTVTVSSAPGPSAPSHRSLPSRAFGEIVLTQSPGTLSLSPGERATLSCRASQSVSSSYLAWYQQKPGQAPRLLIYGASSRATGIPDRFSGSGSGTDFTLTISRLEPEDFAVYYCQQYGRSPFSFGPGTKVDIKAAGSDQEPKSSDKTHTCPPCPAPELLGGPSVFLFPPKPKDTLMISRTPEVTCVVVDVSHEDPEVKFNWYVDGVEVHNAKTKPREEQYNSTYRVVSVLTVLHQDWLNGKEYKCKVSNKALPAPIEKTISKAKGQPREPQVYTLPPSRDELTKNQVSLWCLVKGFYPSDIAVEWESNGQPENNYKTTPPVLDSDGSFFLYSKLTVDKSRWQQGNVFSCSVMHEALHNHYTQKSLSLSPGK
For the molecule B2, in experiment [1], the Bmax was determined as 5460 and the affinity, expressed as Kd, was 0.4 nM.

B3: SRP1449-B03 (scFv, V domains shown)
VH: QVQLVESGGGVVQPGRSLRLSCAASGFTFSSYGMHWVRQAPGKGLEWVAAIWYDASYKYYADSVKGRFTISRDNSKNTLYLQMNSLRAEDTAVYYCAREWAVASWDYALDVWGQGTTVTVSS
VL: EIVLTQSPGTMSLSPGERATLSCRASQSVSSSYLAWYQQKPGQAPRLLIYGASSRATGIPDRFSGSGSGTDFTLTISRLEPEDFAVYYCQQYDRSPLTFGPGTKVDIK
Take B3: the dissociation constant (Kd) (usually the equilibrium constant for the complex coming apart) in experiment [2] was determined as 1.92 nM. For the same molecule, in experiment [3], the Kd is 0.64 nM; the koff (as a rule, a measure of how fast the partners let go of each other) is 0.000302 s⁻¹; the on-rate constant (kon) – broadly, a measure of how fast the partners come together – is 472000 M⁻¹ s⁻¹. Further, in experiment [4], the IC50 (as a rule, the point on the concentration scale where inhibition reaches its midpoint) was 1 nM.

B4: SRP1449-B07 (scFv, V domains shown)
VH: B3 VH with A50V, A55G, Y57N, A103S, A108G, L109M
VL: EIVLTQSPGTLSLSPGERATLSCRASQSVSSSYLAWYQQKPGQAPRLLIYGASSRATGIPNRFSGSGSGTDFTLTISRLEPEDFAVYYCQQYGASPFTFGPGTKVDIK
For the molecule B4, the affinity in experiment [2], expressed as Kd, was 1.06 nM. Further, in experiment [3], binding was put at a Kd of 0.676 nM, the koff amounted to 0.000536 s⁻¹ and the kon was 794000 M⁻¹ s⁻¹. Also, in experiment [4], the IC50 was 1.2 nM.

B5: 421.61.4.5G11 (antibody, V domains shown)
VH: EVQLQQSGAELVRSGASVKLSCTASGFNIKDYYMHWVKQRPEQGLEWIAWIDPENGDTEYAPKFQGRATLTADTSSNTAYLHLSSLTSEDTAVYYCNAPDALDYWGQGTSVTVSS
VL: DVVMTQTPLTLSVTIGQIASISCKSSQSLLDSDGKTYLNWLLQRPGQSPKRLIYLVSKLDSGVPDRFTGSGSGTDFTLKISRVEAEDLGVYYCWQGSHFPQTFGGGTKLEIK
As for B5, in experiment [2], the Kd came to 18 nM. Moreover, in experiment [3], binding was put at a Kd of 10.3 nM, the off-rate (koff) amounted to 0.000515 s⁻¹ and the on-rate constant (kon) stood at 50200 M⁻¹ s⁻¹. In addition, in experiment [4], the half-maximal inhibitory concentration (IC50) came out at 64.3 nM.
